# Laboratory results reported in patent US12173301B2, “Weed control methods and related compositions and plants” (Syngenta Crop Protection AG, priority 2019, dated 2024).
# Test: FatA enzymatic kinetic parameters with oleoyl-CoA as substrate
# Assay type: biochemical
# Details: Michaelis-Menten; for Km: read-out: Km (μM) - best fit
# Procedure: For the determination of FatA enzymatic kinetic parameters with oleoyl-CoA as substrate, assays are carried out essentially as described above for the testing of inhibitor compounds but with some changes to the method as follows. Oleoyl CoA is omitted from the assay master mix and added as a separate component to achieve final concentration of 40 μM, 23.5 μM. 13.8 μM, 8.1 μM, 4.8 μM, 2.8 μM and 1.7 μM (i.e. 1.7× dilution scheme). The level of enzymatic activity is determined from the slope of the progress curve (initial linear rates) using assay values measured at 0, 20, 40, 60, 90 and 120 s after addition of the enzyme. Kinetic parameters are then calculated using the Michaelis-Menten model as implemented in GraphPad Prism software.
# FatA variant enzymes were prepared from 1 L E coli grows and assays carried out to determine enzyme kinetics as described in Example 1.
Molecule,kcat (s^−1) - best fit,Km
"Y217L: Arabidopsis FatA acyl-ACP thioesterase variant, substitution Y217L relative to SEQ ID NO: 1 (protein, listed as Arabidopsis thaliana) MLKLSCNVTDSKLQRSLLFFSHSYRSDPVNFIRRRIVSCSQTKKTGLVPLRAVVSADQGSVVQGLATLADQLRLGSLTEDGLSYKEKFVVRSYEVGSNKTATVETIANLLQEVGCNHAQSVGFSTDGFATTTTMRKLHLIWVTARMHIEIYKYPAWGDVVEIETWCQSEGRIGTRRDWILKDSVTGEVTGRATSKWVMMNQDTRRLQKVSDDVRDELLVFCPQEPRLAFPEENNRSLKKIPKLEDPAQYSMIGLKPRRADLDMNQHVNNVTYIGWVLESIPQEIVDTHELQVITLDYRRECQQDDVVDSLTTTTSEIGGTNGSATSGTQGHNDSQFLHLLRLSGDGQEINRGTTLWRKKPSS",1.7 s⁻¹,4.7 µM
"S168R: Arabidopsis FatA acyl-ACP thioesterase variant, substitution S168R relative to SEQ ID NO: 1 (protein, listed as Arabidopsis thaliana) MLKLSCNVTDSKLQRSLLFFSHSYRSDPVNFIRRRIVSCSQTKKTGLVPLRAVVSADQGSVVQGLATLADQLRLGSLTEDGLSYKEKFVVRSYEVGSNKTATVETIANLLQEVGCNHAQSVGFSTDGFATTTTMRKLHLIWVTARMHIEIYKYPAWGDVVEIETWCQREGRIGTRRDWILKDSVTGEVTGRATSKWVMMNQDTRRLQKVSDDVRDEYLVFCPQEPRLAFPEENNRSLKKIPKLEDPAQYSMIGLKPRRADLDMNQHVNNVTYIGWVLESIPQEIVDTHELQVITLDYRRECQQDDVVDSLTTTTSEIGGTNGSATSGTQGHNDSQFLHLLRLSGDGQEINRGTTLWRKKPSS",1.3 s⁻¹,3 µM
"F123C: Arabidopsis FatA acyl-ACP thioesterase variant, substitution F123C relative to SEQ ID NO: 1 (protein, listed as Arabidopsis thaliana) MLKLSCNVTDSKLQRSLLFFSHSYRSDPVNFIRRRIVSCSQTKKTGLVPLRAVVSADQGSVVQGLATLADQLRLGSLTEDGLSYKEKFVVRSYEVGSNKTATVETIANLLQEVGCNHAQSVGCSTDGFATTTTMRKLHLIWVTARMHIEIYKYPAWGDVVEIETWCQSEGRIGTRRDWILKDSVTGEVTGRATSKWVMMNQDTRRLQKVSDDVRDEYLVFCPQEPRLAFPEENNRSLKKIPKLEDPAQYSMIGLKPRRADLDMNQHVNNVTYIGWVLESIPQEIVDTHELQVITLDYRRECQQDDVVDSLTTTTSEIGGTNGSATSGTQGHNDSQFLHLLRLSGDGQEINRGTTLWRKKPSS",0.3 s⁻¹,4.8 µM
"G114S: Arabidopsis FatA acyl-ACP thioesterase variant, substitution G114S relative to SEQ ID NO: 1 (protein, listed as Arabidopsis thaliana) MLKLSCNVTDSKLQRSLLFFSHSYRSDPVNFIRRRIVSCSQTKKTGLVPLRAVVSADQGSVVQGLATLADQLRLGSLTEDGLSYKEKFVVRSYEVGSNKTATVETIANLLQEVSCNHAQSVGFSTDGFATTTTMRKLHLIWVTARMHIEIYKYPAWGDVVEIETWCQSEGRIGTRRDWILKDSVTGEVTGRATSKWVMMNQDTRRLQKVSDDVRDEYLVFCPQEPRLAFPEENNRSLKKIPKLEDPAQYSMIGLKPRRADLDMNQHVNNVTYIGWVLESIPQEIVDTHELQVITLDYRRECQQDDVVDSLTTTTSEIGGTNGSATSGTQGHNDSQFLHLLRLSGDGQEINRGTTLWRKKPSS",2.3 s⁻¹,2.8 µM
"C221F: Arabidopsis FatA acyl-ACP thioesterase variant, substitution C221F relative to SEQ ID NO: 1 (protein, listed as Arabidopsis thaliana) MLKLSCNVTDSKLQRSLLFFSHSYRSDPVNFIRRRIVSCSQTKKTGLVPLRAVVSADQGSVVQGLATLADQLRLGSLTEDGLSYKEKFVVRSYEVGSNKTATVETIANLLQEVGCNHAQSVGFSTDGFATTTTMRKLHLIWVTARMHIEIYKYPAWGDVVEIETWCQSEGRIGTRRDWILKDSVTGEVTGRATSKWVMMNQDTRRLQKVSDDVRDEYLVFFPQEPRLAFPEENNRSLKKIPKLEDPAQYSMIGLKPRRADLDMNQHVNNVTYIGWVLESIPQEIVDTHELQVITLDYRRECQQDDVVDSLTTTTSEIGGTNGSATSGTQGHNDSQFLHLLRLSGDGQEINRGTTLWRKKPSS",1.5 s⁻¹,4.3 µM
"V121N: Arabidopsis FatA acyl-ACP thioesterase variant, substitution V121N relative to SEQ ID NO: 1 (protein, listed as Arabidopsis thaliana) MLKLSCNVTDSKLQRSLLFFSHSYRSDPVNFIRRRIVSCSQTKKTGLVPLRAVVSADQGSVVQGLATLADQLRLGSLTEDGLSYKEKFVVRSYEVGSNKTATVETIANLLQEVGCNHAQSNGFSTDGFATTTTMRKLHLIWVTARMHIEIYKYPAWGDVVEIETWCQSEGRIGTRRDWILKDSVTGEVTGRATSKWVMMNQDTRRLQKVSDDVRDEYLVFCPQEPRLAFPEENNRSLKKIPKLEDPAQYSMIGLKPRRADLDMNQHVNNVTYIGWVLESIPQEIVDTHELQVITLDYRRECQQDDVVDSLTTTTSEIGGTNGSATSGTQGHNDSQFLHLLRLSGDGQEINRGTTLWRKKPSS",0.8 s⁻¹,7.1 µM
"F220H: Arabidopsis FatA acyl-ACP thioesterase variant, substitution F220H relative to SEQ ID NO: 1 (protein, listed as Arabidopsis thaliana) MLKLSCNVTDSKLQRSLLFFSHSYRSDPVNFIRRRIVSCSQTKKTGLVPLRAVVSADQGSVVQGLATLADQLRLGSLTEDGLSYKEKFVVRSYEVGSNKTATVETIANLLQEVGCNHAQSVGFSTDGFATTTTMRKLHLIWVTARMHIEIYKYPAWGDVVEIETWCQSEGRIGTRRDWILKDSVTGEVTGRATSKWVMMNQDTRRLQKVSDDVRDEYLVHCPQEPRLAFPEENNRSLKKIPKLEDPAQYSMIGLKPRRADLDMNQHVNNVTYIGWVLESIPQEIVDTHELQVITLDYRRECQQDDVVDSLTTTTSEIGGTNGSATSGTQGHNDSQFLHLLRLSGDGQEINRGTTLWRKKPSS",2.0 s⁻¹,3.2 µM
"S168C: Arabidopsis FatA acyl-ACP thioesterase variant, substitution S168C relative to SEQ ID NO: 1 (protein, listed as Arabidopsis thaliana) MLKLSCNVTDSKLQRSLLFFSHSYRSDPVNFIRRRIVSCSQTKKTGLVPLRAVVSADQGSVVQGLATLADQLRLGSLTEDGLSYKEKFVVRSYEVGSNKTATVETIANLLQEVGCNHAQSVGFSTDGFATTTTMRKLHLIWVTARMHIEIYKYPAWGDVVEIETWCQCEGRIGTRRDWILKDSVTGEVTGRATSKWVMMNQDTRRLQKVSDDVRDEYLVFCPQEPRLAFPEENNRSLKKIPKLEDPAQYSMIGLKPRRADLDMNQHVNNVTYIGWVLESIPQEIVDTHELQVITLDYRRECQQDDVVDSLTTTTSEIGGTNGSATSGTQGHNDSQFLHLLRLSGDGQEINRGTTLWRKKPSS",1.2 s⁻¹,6.2 µM
"N269Y: Arabidopsis FatA acyl-ACP thioesterase variant, substitution N269Y relative to SEQ ID NO: 1 (protein, listed as Arabidopsis thaliana) MLKLSCNVTDSKLQRSLLFFSHSYRSDPVNFIRRRIVSCSQTKKTGLVPLRAVVSADQGSVVQGLATLADQLRLGSLTEDGLSYKEKFVVRSYEVGSNKTATVETIANLLQEVGCNHAQSVGFSTDGFATTTTMRKLHLIWVTARMHIEIYKYPAWGDVVEIETWCQSEGRIGTRRDWILKDSVTGEVTGRATSKWVMMNQDTRRLQKVSDDVRDEYLVFCPQEPRLAFPEENNRSLKKIPKLEDPAQYSMIGLKPRRADLDMNQHVNYVTYIGWVLESIPQEIVDTHELQVITLDYRRECQQDDVVDSLTTTTSEIGGTNGSATSGTQGHNDSQFLHLLRLSGDGQEINRGTTLWRKKPSS",6.1 s⁻¹,4 µM
"F123N: Arabidopsis FatA acyl-ACP thioesterase variant, substitution F123N relative to SEQ ID NO: 1 (protein, listed as Arabidopsis thaliana) MLKLSCNVTDSKLQRSLLFFSHSYRSDPVNFIRRRIVSCSQTKKTGLVPLRAVVSADQGSVVQGLATLADQLRLGSLTEDGLSYKEKFVVRSYEVGSNKTATVETIANLLQEVGCNHAQSVGNSTDGFATTTTMRKLHLIWVTARMHIEIYKYPAWGDVVEIETWCQSEGRIGTRRDWILKDSVTGEVTGRATSKWVMMNQDTRRLQKVSDDVRDEYLVFCPQEPRLAFPEENNRSLKKIPKLEDPAQYSMIGLKPRRADLDMNQHVNNVTYIGWVLESIPQEIVDTHELQVITLDYRRECQQDDVVDSLTTTTSEIGGTNGSATSGTQGHNDSQFLHLLRLSGDGQEINRGTTLWRKKPSS",0.3 s⁻¹,14.6 µM
"L218C: Arabidopsis FatA acyl-ACP thioesterase variant, substitution L218C relative to SEQ ID NO: 1 (protein, listed as Arabidopsis thaliana) MLKLSCNVTDSKLQRSLLFFSHSYRSDPVNFIRRRIVSCSQTKKTGLVPLRAVVSADQGSVVQGLATLADQLRLGSLTEDGLSYKEKFVVRSYEVGSNKTATVETIANLLQEVGCNHAQSVGFSTDGFATTTTMRKLHLIWVTARMHIEIYKYPAWGDVVEIETWCQSEGRIGTRRDWILKDSVTGEVTGRATSKWVMMNQDTRRLQKVSDDVRDEYCVFCPQEPRLAFPEENNRSLKKIPKLEDPAQYSMIGLKPRRADLDMNQHVNNVTYIGWVLESIPQEIVDTHELQVITLDYRRECQQDDVVDSLTTTTSEIGGTNGSATSGTQGHNDSQFLHLLRLSGDGQEINRGTTLWRKKPSS",1.1 s⁻¹,0.8 µM
